This note sets out measurements from article PMC6261992, “Structural insight into D-xylose utilization by xylose reductase from Scheffersomyces stipitis” (Scientific Reports, 2018).

Series [1] deals with the molecule itself. In words: SEC; analytical, Superdex increase 200 10/300 GL, 40 mM Tris-HCl pH 8.0, 0 mM NaCl; 0.5 mL at 1 mg/mL; (in 50 and 100 mM NaCl generally separated into monomers). (In gel filtration, larger molecules generally elute earlier.)
Substrate in series [2]: NC(=O)C1=CN([C@@H]2O[C@H](COP(=O)(O)OP(=O)(O)OC[C@H]3O[C@@H](n4cnc5c(N)ncnc54)[C@H](O)[C@@H]3O)[C@@H](O)[C@H]2O)C=CC1
In words: purified protein. The series is classed as biochemical, Scheffersomyces stipitis. The conditions noted are these: 150 mM NaCl, 100 mM D-xylose, 100 mM Tris-HCl pH 8.0, 303 K, 30.0 °C, varied: cofactor.

Substrate in series [3]: NC(=O)C1=CN([C@@H]2O[C@H](COP(=O)(O)OP(=O)(O)OC[C@H]3O[C@@H](n4cnc5c(N)ncnc54)[C@H](OP(=O)(O)O)[C@@H]3O)[C@@H](O)[C@H]2O)C=CC1
In words: purified protein. The series is classed as biochemical, Scheffersomyces stipitis. The conditions noted are these: 150 mM NaCl, 100 mM D-xylose, 100 mM Tris-HCl pH 8.0, 303 K, crystal structure of the complex at 2.0 Å, 30.0 °C, varied: cofactor.

B1: D-xylose reductase from Scheffersomyces stipitis (enzyme, UniProt P31867 1-318, looked up)
chain: MPSIKLNSGYDMPAVGFGCWKVDVDTCSEQIYRAIKTGYRLFDGAEDYANEKLVGAGVKKAIDEGIVKREDLFLTSKLWNNYHHPDNVEKALNRTLSDLQVDYVDLFLIHFPVTFKFVPLEEKYPPGFYCGKGDNFDYEDVPILETWKALEKLVKAGKIRSIGVSNFPGALLLDLLRGATIKPSVLQVEHHPYLQQPRLIEFAQSRGIAVTAYSSFGPQSFVELNQGRALNTSPLFENETIKAIAAKHGKSPAQVLLRWSSQRGIAIIPKSNTVPRLLENKDVNSFDLDEQDFADIAKLDINLRFNDPWDWDKIPIFV
notes: D-xylose reductase (SsXR) of Scheffersomyces stipitis; cloned NdeI/XhoI into pProEX-HTa; The vector adds a 6x-His tag with an rTEV protease cleavage site at the N-terminus; also called SsXR; XR; source: E. coli BL21(DE3)-T1R, purified (Ni-NTA, gel filtration)
As usually defined, the stoichiometry N is the number of molecules, sites or subunits per partner or assembly. For orientation: Km means the concentration of substrate that gives half-maximal velocity. For orientation: kcat means the number of substrate molecules converted per active site and unit of time at saturation. B1: in series [1], the “stoichiometry N” value worked out at 2. For the same protein, in “purified protein [2]”, the Km came out at 136 ± 17 µM and the kcat came out at 2.39 ± 0.15 s⁻¹. Moreover, in “purified protein [3]”, the Km stood at 27.7 ± 2 µM and the kcat stood at 7.63 ± 0.19 s⁻¹.
